According to patent US20180318386A1, “PEPTIDES AND METHODS OF TREATING ENDOMETRIOSIS USING THE SAME” (BIOINCEPT, LLC, priority 2014, published 2018):

What was measured:
[1] = target: Hepatoma-derived growth factor (human) (UniProt P51858); test: PIF affinity resin pull-down, CD8+ cell lysate, LC-MS/MS count
Calmodulin (human) = Calmodulin (human) (UniProt P0DP23); test: as above
[2] = target: Serum deprivation-response protein (human) (UniProt O95810); test: as above
Calreticulin (human) = Calreticulin (human) (UniProt P27797); test: as above
[3] = target: Actin, cytoplasmic 1 (human) (UniProt P60709); test: as above
[4] = target: Isoform 2 of Heat shock protein HSP 90-alpha (human) (UniProt P07900); test: as above
Thymosin alpha-1 (human) = Thymosin alpha-1 (human) (UniProt P06454); test: as above
Nucleolin (human) = Nucleolin (human) (UniProt P19338); test: as above
[5] = target: 14-3-3 protein zeta/delta (human) (UniProt P63104); test: as above
[6] = target: Tropomyosin alpha-4 chain (human) (UniProt P67936); test: as above
Serum albumin (human) = Serum albumin (human) (UniProt P02768); test: as above
[7] = target: Serine/arginine-rich-splicing factor 1 (human) (UniProt Q07955); test: as above
Cofilin-1 (human) = Cofilin-1 (human) (UniProt P23528); test: as above
[8] = target: Isoform 2 of Protein SET (human) (UniProt Q01105); test: as above
[9] = target: Acidic leucine-rich nuclear phosphoprotein 32 family member A (human) (UniProt P39687); test: as above
Thrombospondin-4 (human) [10] = target: Thrombospondin-4 (human) (UniProt P35443); test: as above
[11] = target: Cartilage oligomeric matrix protein (human) (UniProt P49747); test: as above
Thrombospondin-1 (human) = Thrombospondin-1 (human) (UniProt P07996); test: as above
Talin-1 (human) = Talin-1 (human) (UniProt Q9Y490); test: as above
[12] = target: Nuclease-sensitive element-binding protein 1 (Fragment) (human) (UniProt P67809); test: as above
[13] = target: Hepatoma-derived growth factor (human) (UniProt P51858); test: PIF affinity resin pull-down, CD4+ cell lysate, LC-MS/MS count
[14] = target: Isoform 2 of Protein SET (human) (UniProt Q01105); test: as above
[15] = target: Acidic leucine-rich nuclear phosphoprotein 32 family member A (human) (UniProt P39687); test: as above
Thrombospondin-4 (human) [16] = target: Thrombospondin-4 (human) (UniProt P35443); test: as above

Calreticulin (human), sequence (P27797 18-417 limits assumed): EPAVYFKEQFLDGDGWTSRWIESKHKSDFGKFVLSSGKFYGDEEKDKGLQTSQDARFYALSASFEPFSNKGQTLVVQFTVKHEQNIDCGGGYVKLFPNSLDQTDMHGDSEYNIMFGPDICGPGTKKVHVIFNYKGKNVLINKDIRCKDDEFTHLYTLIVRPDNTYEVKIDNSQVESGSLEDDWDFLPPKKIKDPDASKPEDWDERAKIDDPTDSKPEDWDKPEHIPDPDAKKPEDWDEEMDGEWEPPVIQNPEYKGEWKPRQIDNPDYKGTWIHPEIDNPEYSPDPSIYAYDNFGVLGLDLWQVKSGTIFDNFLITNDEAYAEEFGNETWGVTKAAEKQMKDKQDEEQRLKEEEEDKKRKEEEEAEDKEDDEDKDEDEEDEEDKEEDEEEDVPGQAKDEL
Thrombospondin-4 (human), sequence (P35443 27-961 limits assumed): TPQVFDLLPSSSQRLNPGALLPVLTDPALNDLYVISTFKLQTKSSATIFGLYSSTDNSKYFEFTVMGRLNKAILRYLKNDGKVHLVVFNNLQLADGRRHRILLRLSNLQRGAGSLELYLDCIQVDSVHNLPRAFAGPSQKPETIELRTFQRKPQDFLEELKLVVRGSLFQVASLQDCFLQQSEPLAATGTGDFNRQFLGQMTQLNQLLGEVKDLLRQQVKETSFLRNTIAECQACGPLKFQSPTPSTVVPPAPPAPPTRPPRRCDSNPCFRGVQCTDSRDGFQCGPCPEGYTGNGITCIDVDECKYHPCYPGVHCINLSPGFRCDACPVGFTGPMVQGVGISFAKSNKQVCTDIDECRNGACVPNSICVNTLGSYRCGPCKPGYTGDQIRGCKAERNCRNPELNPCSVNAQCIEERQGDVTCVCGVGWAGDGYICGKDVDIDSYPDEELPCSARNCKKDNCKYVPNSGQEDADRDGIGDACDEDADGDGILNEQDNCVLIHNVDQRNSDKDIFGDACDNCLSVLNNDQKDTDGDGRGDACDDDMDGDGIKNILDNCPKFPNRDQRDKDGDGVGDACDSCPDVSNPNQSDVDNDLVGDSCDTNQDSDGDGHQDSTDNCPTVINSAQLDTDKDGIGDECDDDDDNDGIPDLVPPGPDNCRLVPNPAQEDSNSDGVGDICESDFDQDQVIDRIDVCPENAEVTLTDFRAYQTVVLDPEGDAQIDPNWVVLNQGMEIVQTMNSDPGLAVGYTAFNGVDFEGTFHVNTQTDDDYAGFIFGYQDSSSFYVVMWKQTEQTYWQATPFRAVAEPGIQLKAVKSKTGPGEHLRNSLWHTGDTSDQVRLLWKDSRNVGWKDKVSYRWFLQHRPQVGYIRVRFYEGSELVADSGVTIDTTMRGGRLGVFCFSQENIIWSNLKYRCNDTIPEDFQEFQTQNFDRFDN
Thrombospondin-1 (human), sequence (P07996 19-1170 limits assumed): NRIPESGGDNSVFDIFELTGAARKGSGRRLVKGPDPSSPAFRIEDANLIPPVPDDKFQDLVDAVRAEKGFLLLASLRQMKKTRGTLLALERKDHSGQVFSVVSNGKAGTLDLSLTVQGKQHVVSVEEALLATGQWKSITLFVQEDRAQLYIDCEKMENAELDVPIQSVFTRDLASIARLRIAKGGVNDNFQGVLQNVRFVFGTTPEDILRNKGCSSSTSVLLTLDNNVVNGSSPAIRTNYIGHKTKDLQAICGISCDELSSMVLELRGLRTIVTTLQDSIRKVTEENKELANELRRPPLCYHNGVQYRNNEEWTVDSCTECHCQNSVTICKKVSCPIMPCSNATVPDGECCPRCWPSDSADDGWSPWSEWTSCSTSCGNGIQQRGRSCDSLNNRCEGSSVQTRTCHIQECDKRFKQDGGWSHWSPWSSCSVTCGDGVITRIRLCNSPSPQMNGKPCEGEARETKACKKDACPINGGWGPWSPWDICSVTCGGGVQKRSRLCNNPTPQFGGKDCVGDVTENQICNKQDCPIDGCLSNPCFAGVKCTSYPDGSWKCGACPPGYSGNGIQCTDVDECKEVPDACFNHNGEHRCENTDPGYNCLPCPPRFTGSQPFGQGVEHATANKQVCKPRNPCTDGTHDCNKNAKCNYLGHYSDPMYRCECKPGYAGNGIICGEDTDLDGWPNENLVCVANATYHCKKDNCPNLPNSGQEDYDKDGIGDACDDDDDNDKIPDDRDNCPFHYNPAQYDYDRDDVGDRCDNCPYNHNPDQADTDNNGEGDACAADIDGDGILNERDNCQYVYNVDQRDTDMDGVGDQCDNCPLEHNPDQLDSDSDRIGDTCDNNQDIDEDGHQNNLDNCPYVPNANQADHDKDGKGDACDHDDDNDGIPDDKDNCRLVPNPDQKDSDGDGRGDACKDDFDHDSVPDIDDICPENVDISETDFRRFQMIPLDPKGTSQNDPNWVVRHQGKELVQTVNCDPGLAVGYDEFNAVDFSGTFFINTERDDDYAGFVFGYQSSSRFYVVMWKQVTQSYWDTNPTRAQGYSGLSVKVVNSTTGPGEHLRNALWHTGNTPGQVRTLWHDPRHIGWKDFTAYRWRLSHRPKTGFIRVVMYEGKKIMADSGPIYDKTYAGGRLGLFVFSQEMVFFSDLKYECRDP
Cartilage oligomeric matrix protein (human), sequence (P49747 21-757 limits assumed): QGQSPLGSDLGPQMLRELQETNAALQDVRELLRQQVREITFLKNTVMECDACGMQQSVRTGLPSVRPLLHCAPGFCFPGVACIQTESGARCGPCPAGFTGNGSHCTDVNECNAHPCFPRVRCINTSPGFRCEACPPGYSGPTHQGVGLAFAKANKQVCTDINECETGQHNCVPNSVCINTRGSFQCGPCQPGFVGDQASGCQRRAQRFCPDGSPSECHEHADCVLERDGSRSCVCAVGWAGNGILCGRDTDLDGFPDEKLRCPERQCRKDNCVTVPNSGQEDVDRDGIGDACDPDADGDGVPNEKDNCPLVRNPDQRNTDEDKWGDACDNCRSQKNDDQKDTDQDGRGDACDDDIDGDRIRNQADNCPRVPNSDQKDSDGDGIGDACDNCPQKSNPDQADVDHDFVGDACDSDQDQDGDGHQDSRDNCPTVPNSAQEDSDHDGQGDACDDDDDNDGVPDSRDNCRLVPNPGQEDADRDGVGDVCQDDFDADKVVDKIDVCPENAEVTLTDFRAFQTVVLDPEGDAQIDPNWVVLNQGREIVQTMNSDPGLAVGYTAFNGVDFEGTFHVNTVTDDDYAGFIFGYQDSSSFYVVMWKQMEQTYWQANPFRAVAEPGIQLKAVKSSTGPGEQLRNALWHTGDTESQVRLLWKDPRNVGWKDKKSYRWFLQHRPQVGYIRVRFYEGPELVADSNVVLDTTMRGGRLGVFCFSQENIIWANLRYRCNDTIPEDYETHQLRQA
Nucleolin (human), sequence (P19338 2-710 limits assumed): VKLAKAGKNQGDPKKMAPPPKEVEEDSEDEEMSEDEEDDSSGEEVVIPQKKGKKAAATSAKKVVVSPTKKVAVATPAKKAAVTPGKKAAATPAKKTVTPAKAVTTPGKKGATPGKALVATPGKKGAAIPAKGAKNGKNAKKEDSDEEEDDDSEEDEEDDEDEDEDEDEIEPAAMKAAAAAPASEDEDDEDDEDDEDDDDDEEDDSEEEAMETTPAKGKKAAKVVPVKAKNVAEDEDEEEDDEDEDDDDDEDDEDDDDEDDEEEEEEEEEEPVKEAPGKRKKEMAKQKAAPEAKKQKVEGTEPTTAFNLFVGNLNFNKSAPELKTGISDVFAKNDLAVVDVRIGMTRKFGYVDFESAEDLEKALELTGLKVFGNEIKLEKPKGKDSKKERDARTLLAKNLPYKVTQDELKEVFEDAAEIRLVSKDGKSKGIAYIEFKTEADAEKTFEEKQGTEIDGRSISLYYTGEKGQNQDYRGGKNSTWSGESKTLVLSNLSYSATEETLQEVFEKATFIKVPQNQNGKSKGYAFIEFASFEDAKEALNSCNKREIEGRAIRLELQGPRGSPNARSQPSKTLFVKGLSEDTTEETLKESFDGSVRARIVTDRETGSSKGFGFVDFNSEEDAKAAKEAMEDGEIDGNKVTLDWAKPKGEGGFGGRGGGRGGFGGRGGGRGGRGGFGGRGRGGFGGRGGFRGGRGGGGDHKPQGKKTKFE
Cofilin-1 (human), sequence (P23528 2-166 limits assumed): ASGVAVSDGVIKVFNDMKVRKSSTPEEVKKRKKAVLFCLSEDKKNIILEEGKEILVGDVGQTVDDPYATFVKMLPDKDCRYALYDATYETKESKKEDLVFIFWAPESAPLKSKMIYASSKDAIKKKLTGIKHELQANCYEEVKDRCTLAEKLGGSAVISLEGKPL
Acidic leucine-rich nuclear phosphoprotein 32 family member A (human), sequence (P39687 whole entry): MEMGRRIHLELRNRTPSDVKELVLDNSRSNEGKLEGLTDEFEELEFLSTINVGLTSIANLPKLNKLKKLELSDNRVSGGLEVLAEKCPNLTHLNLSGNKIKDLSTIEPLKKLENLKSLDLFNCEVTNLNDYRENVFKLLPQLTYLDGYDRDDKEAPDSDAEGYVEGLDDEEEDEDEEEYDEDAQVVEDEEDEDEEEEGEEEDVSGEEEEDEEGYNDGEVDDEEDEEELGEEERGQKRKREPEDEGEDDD
14-3-3 protein zeta/delta (human), sequence (P63104 whole entry, stated change not applied): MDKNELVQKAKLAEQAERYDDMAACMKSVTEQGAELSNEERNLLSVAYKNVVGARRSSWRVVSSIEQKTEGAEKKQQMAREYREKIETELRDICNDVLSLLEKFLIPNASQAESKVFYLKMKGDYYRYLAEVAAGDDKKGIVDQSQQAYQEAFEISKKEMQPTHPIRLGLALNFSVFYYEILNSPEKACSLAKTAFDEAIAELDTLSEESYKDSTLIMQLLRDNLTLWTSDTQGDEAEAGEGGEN
Tropomyosin alpha-4 chain (human), sequence (P67936 2-248 limits assumed): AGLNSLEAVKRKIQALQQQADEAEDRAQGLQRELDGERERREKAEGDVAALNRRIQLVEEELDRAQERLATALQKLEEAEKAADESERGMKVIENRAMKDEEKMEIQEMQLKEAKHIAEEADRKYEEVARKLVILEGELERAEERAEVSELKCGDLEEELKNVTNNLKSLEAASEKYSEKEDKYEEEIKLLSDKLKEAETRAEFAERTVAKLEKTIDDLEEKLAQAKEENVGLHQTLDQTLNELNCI
Thymosin alpha-1 (human), sequence (P06454 other isoform, or with tags, fused parts or gaps limits assumed): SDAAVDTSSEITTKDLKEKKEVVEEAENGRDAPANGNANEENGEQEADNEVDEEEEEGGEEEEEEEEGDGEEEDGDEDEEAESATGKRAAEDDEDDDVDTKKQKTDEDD

Substance: PIF15 affinity resin (Cys-C6 spacer-PIF15 conjugated to agarose) (peptide)
- Ave [1]: 1
- Inject 1 [1]: 1
- Inject 2 [1]: 1
- Inject 3 [1]: 1
- Ave (Calmodulin (human)): 2
- Inject 1 (Calmodulin (human)): 2
- Inject 2 (Calmodulin (human)): 2
- Inject 3 (Calmodulin (human)): 2
- Ave [2]: 2
- Inject 1 [2]: 2
- Inject 2 [2]: 2
- Inject 3 [2]: 2
- Ave (Calreticulin (human)): 2
- Inject 1 (Calreticulin (human)): 2
- Inject 2 (Calreticulin (human)): 2
- Inject 3 (Calreticulin (human)): 2
- Ave [3]: 3
- Inject 1 [3]: 3
- Inject 2 [3]: 3
- Inject 3 [3]: 3
- Ave [4]: 2
- Inject 1 [4]: 2
- Inject 2 [4]: 2
- Inject 3 [4]: 2
- Ave (Thymosin alpha-1 (human)): 3
- Inject 1 (Thymosin alpha-1 (human)): 2
- Inject 2 (Thymosin alpha-1 (human)): 2
- Inject 3 (Thymosin alpha-1 (human)): 4
- Ave (Nucleolin (human)): 1
- Inject 1 (Nucleolin (human)): 1
- Inject 2 (Nucleolin (human)): 1
- Inject 3 (Nucleolin (human)): 1
- Ave [5]: 2
- Inject 1 [5]: 2
- Inject 2 [5]: 2
- Inject 3 [5]: 2
- Ave [6]: 3
- Inject 1 [6]: 3
- Inject 2 [6]: 3
- Inject 3 [6]: 3
- Ave (Serum albumin (human)): 6
- Inject 1 (Serum albumin (human)): 3
- Inject 2 (Serum albumin (human)): 6
- Inject 3 (Serum albumin (human)): 8
- Ave [7]: 1
- Inject 1 [7]: 1
- Inject 2 [7]: 1
- Inject 3 [7]: 1
- Ave (Cofilin-1 (human)): 1
- Inject 1 (Cofilin-1 (human)): 1
- Inject 2 (Cofilin-1 (human)): 1
- Inject 3 (Cofilin-1 (human)): 1
- Ave [8]: 1
- Inject 1 [8]: 1
- Inject 2 [8]: 1
- Inject 3 [8]: 1
- Ave [9]: 2
- Inject 1 [9]: 2
- Inject 2 [9]: 2
- Inject 3 [9]: 2
- Ave (Thrombospondin-4 (human) [10]): 3
- Inject 1 (Thrombospondin-4 (human) [10]): 3
- Inject 2 (Thrombospondin-4 (human) [10]): 3
- Inject 3 (Thrombospondin-4 (human) [10]): 3
- Ave [11]: 4
- Inject 1 [11]: 4
- Inject 2 [11]: 4
- Inject 3 [11]: 5
- Ave (Thrombospondin-1 (human)): 7
- Inject 1 (Thrombospondin-1 (human)): 7
- Inject 2 (Thrombospondin-1 (human)): 7
- Inject 3 (Thrombospondin-1 (human)): 7
- Ave (Talin-1 (human)): 1
- Inject 1 (Talin-1 (human)): 1
- Inject 2 (Talin-1 (human)): 1
- Inject 3 (Talin-1 (human)): 1
- Ave [12]: 1
- Inject 1 [12]: 1
- Inject 2 [12]: 1
- Inject 3 [12]: 1
- Ave [13]: 3
- Inject 1 [13]: 3
- Inject 2 [13]: 3
- Inject 3 [13]: 3
- Ave [14]: 4
- Inject 1 [14]: 3
- Inject 2 [14]: 4
- Inject 3 [14]: 4
- Ave [15]: 1
- Inject 1 [15]: 1
- Inject 2 [15]: 1
- Inject 3 [15]: 1
- Ave (Thrombospondin-4 (human) [16]): 3
- Inject 1 (Thrombospondin-4 (human) [16]): 3
- Inject 2 (Thrombospondin-4 (human) [16]): 3
- Inject 3 (Thrombospondin-4 (human) [16]): 3
